Laboratory results as given in article doi:10.1101/2021.10.21.465318.
Read-outs that look alike come from different tables or passages of the source.

Columns and labels:
Test in all cases: FRET
[1] = target: T1, HsMSH2;HsMSH6 (sortase/Cy3) (Homo sapiens;Homo sapiens, UniProt P43246;P52701 1-934;1-1360, |)
[2] = target: T2, HsMSH2;HsMSH3 (sortase/Cy3) (Homo sapiens;Homo sapiens, UniProt P43246;P20585 1-934;1-1137, |)
[3] = target: T2, HsMSH2;HsMSH3 (sortase/Cy3); remark: listed apart in the source
[4] = target: T1, HsMSH2;HsMSH6 (sortase/Cy3); remark: listed apart in the source
[5] = target: T2, HsMSH2;HsMSH3 (sortase/Cy3); remark: listed apart in the source
[6] = target: T1, HsMSH2;HsMSH6 (sortase/Cy3); remark: listed apart in the source

B1: 41-mer G/T Cy5 (dsDNA)
DNA 1: GCTTAGGATCATCGAGGATCGAGCTCGGTGCAATTCAGCGG
DNA 2: CCGCTGAATTGCACCGAGCTTGATCCTGCATGATCCTAAGC
modifications: amino-C6 dT at position 12 of top strand
- binding result [1]: binds
- binding result [2]: no binding

B2: 41-mer G/+(CA)4 Cy5 (dsDNA)
DNA 1: GCTTAGGATCATCGAGGATCGAGCTCGGTGCAATTCAGCGG
DNA 2: CCGCTGAATTGCACCGAGCTCACACACACGATCCTCGATGATCCTAAGC
modifications: amino-C6 dT at position 12 of top strand
- binding result [3]: binds
- binding result [4]: binds

B3: 41-mer G/C Cy5 (dsDNA)
DNA 1: GCTTAGGATCATCGAGGATCGAGCTCGGTGCAATTCAGCGG
DNA 2: CCGCTGAATTGCACCGAGCTCGATCCTCGATGATCCTAAGC
modifications: amino-C6 dT at position 12 of top strand
- binding result [5]: no binding
- binding result [6]: no binding
